From patent publication US20100291638

Key:
Conditions in all cases: dNTP incorporation; background <500
[1] = tested on: T1, DNA polymerase clone 1937 (uncultured hot spring virus (Great Boiling Spring))
T1 sequence: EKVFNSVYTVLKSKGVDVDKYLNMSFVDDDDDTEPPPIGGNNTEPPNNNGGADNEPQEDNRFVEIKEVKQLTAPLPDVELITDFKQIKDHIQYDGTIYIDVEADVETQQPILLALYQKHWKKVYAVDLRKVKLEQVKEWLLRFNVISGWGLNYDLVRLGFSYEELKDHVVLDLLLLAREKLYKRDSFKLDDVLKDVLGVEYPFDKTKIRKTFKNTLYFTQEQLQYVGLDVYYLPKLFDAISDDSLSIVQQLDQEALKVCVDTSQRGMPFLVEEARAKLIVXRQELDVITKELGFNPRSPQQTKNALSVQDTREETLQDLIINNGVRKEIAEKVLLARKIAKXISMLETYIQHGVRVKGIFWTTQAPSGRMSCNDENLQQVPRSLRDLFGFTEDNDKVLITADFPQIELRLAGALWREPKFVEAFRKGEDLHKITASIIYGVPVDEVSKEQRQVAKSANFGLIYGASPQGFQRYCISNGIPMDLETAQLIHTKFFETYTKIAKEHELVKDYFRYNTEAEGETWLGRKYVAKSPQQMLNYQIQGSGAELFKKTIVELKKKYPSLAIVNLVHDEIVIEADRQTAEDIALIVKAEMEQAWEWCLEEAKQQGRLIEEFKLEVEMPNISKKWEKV

[2] = tested on: T2, DNA polymerase clone 2783GBS (uncultured hot spring virus (Great Boiling Spring))
T2 sequence: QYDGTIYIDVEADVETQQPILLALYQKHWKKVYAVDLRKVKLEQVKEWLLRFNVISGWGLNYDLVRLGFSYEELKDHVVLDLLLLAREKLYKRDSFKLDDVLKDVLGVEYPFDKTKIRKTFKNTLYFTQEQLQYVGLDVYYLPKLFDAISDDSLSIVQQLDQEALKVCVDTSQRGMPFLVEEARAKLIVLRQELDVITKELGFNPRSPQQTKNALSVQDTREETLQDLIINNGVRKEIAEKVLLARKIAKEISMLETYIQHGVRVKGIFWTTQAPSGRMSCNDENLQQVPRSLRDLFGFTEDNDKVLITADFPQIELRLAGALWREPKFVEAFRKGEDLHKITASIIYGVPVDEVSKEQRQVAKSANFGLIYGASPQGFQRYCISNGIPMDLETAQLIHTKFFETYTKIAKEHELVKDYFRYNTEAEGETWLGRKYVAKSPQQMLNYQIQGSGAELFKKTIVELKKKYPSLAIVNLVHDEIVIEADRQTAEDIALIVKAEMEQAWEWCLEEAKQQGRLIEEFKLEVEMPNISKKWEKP

[3] = tested on: T3, DNA polymerase clone 1773 (uncultured hot spring virus (Great Boiling Spring))
T3 sequence: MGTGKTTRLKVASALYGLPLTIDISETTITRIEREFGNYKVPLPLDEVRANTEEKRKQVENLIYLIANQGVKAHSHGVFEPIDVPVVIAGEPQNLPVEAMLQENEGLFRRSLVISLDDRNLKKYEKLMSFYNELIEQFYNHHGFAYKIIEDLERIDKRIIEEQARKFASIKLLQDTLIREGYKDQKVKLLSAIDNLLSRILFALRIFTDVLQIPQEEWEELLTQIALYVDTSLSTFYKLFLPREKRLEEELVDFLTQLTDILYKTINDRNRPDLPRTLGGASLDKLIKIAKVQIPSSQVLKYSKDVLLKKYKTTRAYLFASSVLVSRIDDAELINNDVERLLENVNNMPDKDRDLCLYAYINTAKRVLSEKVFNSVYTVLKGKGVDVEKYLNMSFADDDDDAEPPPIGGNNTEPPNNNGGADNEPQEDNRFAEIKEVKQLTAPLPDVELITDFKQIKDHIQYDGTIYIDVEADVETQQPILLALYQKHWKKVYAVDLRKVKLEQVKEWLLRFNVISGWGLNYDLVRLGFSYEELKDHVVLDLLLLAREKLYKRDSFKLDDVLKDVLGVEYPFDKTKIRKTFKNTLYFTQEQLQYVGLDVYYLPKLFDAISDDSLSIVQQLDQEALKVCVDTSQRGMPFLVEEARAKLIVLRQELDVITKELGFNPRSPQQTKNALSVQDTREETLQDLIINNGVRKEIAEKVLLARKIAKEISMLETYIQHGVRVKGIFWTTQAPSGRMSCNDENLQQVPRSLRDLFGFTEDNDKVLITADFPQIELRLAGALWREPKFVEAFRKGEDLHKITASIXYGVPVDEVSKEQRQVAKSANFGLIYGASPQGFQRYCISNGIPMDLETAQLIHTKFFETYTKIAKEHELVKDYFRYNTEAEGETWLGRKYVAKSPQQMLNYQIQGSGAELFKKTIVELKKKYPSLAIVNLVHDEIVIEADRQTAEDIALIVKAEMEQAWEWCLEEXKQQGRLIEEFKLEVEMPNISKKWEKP

[4] = tested on: T4, DNA polymerase clone 74 (uncultured hot spring virus (Great Boiling Spring))
T4 sequence: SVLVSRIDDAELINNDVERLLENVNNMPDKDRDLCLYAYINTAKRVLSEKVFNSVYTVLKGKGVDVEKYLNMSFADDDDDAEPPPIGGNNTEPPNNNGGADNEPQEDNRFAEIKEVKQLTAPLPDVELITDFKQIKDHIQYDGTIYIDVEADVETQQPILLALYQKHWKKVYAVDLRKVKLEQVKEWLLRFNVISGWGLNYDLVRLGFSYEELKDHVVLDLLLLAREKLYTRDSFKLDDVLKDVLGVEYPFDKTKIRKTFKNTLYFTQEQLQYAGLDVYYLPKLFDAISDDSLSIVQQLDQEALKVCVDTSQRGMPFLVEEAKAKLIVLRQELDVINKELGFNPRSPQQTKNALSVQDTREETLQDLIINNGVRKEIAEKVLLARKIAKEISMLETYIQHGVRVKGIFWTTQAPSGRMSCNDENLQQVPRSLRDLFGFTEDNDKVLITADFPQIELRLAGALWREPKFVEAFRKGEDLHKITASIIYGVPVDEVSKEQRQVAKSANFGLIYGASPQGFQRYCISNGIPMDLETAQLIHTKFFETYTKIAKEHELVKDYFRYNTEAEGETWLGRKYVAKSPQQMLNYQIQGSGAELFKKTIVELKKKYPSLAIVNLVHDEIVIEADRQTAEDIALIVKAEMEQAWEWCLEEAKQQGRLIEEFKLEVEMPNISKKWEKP

## activated calf thymus DNA
[1]
  activity: 70300 cpm
[2]
  activity: 11500 cpm
[3]
  activity: 124000 cpm
[4]
  activity: 47400 cpm
